Test results as given in patent US20020010135A1 (Amgen, published 2002).
Changes are numbered by the printed parent chain. Names and notes keep the numbering of the source. One block for each molecule: values may come before it.

Legend:
[1] = target: trkB receptor; assay: cell-based or functional assay
[2] = target: human trkC receptor protein (human, UniProt Q16288 32-839); assay: cell-based or functional assay
human trkC receptor protein, sequence (Q16288 32-839): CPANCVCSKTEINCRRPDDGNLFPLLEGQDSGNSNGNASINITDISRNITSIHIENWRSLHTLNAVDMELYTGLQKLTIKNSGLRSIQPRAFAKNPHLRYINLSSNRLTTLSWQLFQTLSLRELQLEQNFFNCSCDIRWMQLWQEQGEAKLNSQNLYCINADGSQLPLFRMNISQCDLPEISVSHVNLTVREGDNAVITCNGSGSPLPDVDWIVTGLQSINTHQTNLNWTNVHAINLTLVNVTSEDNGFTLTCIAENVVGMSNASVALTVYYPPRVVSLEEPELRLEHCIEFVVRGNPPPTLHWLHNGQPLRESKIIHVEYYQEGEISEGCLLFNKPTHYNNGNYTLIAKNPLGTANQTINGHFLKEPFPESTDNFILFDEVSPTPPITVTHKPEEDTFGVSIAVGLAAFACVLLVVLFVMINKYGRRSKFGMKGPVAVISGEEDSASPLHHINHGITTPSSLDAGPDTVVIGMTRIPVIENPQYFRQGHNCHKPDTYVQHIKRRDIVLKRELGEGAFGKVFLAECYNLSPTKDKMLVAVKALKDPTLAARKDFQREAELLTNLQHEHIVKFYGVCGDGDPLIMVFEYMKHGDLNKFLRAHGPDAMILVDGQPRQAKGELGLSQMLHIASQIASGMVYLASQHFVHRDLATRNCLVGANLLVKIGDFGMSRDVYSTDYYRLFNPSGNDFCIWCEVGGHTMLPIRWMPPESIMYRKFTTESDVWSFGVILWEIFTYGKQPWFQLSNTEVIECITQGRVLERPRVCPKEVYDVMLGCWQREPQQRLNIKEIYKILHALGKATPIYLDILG

B2: NT-3(1-119)R61A,K64D (ligand)
chain: MYAEHKSHRGEYSVCDSESLWVTDKSSAIDIRGHQVTVLGEIKTGNSPVKQYFYETRCKEAAPVDNGCRGIDDKHWNSQCKTSQTYVRALTSENNKLVGWRWIRIDTSCVCALSRKIGRT
Percentage of expected activity (%), in vitro mitogenic bioassay [2]: 524%

B3: NT-3(1-117)R61A,K64D (ligand)
chain: MYAEHKSHRGEYSVCDSESLWVTDKSSAIDIRGHQVTVLGEIKTGNSPVKQYFYETRCKEAAPVDNGCRGIDDKHWNSQCKTSQTYVRALTSENNKLVGWRWIRIDTSCVCALSRKIG
Percentage of expected activity (%), in vitro mitogenic bioassay [2]: 328%

Results, then the molecule that gave them:

Bioactivity (mg/mg), MTS mitogenic bioassay [1]: 1.24 mg/mg
Molecule: BDNF, K65D, K73D, K95A, R97A (from UniProt P23560 129-247) (ligand)

Bioactivity (mg/mg), MTS mitogenic bioassay [1]: 0.61 mg/mg
Molecule: BDNF, P60E, K65D, K73D, K95A (from UniProt P23560 129-247) (ligand)

Bioactivity (mg/mg), MTS mitogenic bioassay [1]: 0.61 mg/mg
Molecule: Wild type BDNF (from UniProt P23560 129-247) (ligand)

Percentage of expected activity (%), in vitro mitogenic bioassay [2]: 72%
B1: wild type human NT-3 (r-metHuNT-3) (ligand)
chain: B2 chain with A62R, D65K
